This note sets out measurements from patent US20110143963A1.

In general, IC50 refers to the concentration needed to halve the response being measured. The low end stands for inhibition by little substance, the high end for a need for much substance. What is called Kd is the constant that tells how readily two partners part at equilibrium. A high value points to a looser complex.

The target in assay [1] is eSH2-6 (human) (UniProt P62993). Description: competition phage ELISA: eSH2-6 phage pre-incubated with free pY1139 peptide, unbound phage captured. On the technique in general: An ELISA detects its analyte on a solid surface through an enzyme-linked reagent.
Assay [2] addresses SH2 domain of human Grb2 (human) (UniProt P62993). Description: panel D, competition phage ELISA: wtSH2 (Grb2-SH2) phages incubated with free pY1139 peptide (0 to about 2200 nM), phages not bound to the free peptide captured and detected.
Assay [3] has as its target eSH2-6 (human) (UniProt P62993). Kind of assay: panel C, competition phage ELISA: eSH2-6 phages incubated with free pY1139 peptide (0 to 50 nM), phages not bound to the free peptide captured and detected.
Assay [4] addresses eSH2-3 (human) (UniProt P62993). Kind of assay: panel B, competition phage ELISA: eSH2-3 phages incubated with free pY1139 peptide (0 to 50 nM), phages not bound to the free peptide captured and detected.
Assay [5] has the same target. Description: competition phage ELISA: eSH2-3 phage pre-incubated with free pY1139 peptide, unbound phage captured.
Assay [6] addresses δ-catenin peptide PASPDSWV-COOH. Kind of assay: SPR (BIAcore). (SPR reads the build-up and loss of mass on a sensor chip optically.)
Assay [7] has as its target ARVCF peptide PQPVDSWV-COOH (eight-residue motif corresponding to the ARVCF C-terminus). Description: SPR (BIAcore).

SH2 domain of human Grb2 (human), sequence (P62993 56-153 limits assumed): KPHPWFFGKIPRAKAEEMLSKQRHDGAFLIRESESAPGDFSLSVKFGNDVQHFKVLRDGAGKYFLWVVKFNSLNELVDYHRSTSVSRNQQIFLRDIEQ

Turning to “pY-containing peptide corresponding to residues 1130-1146 of ErbB2 (HER2) pY1139”, the IC50 came out at 90 µM in the assay with eSH2-6 (human) [1]; 0.07 µM in assay [2]; 0.09 nM with eSH2-6 (human) [3]; 0.09 nM with eSH2-3 (human) [4]; 90 µM with eSH2-3 (human) [5].

For “PDZ domain of Erbin (wild-type) (from UniProt Q96RT1 1314-1412)”, the dissociation constant Kd in assay [6] and in assay [7] was 10 µM throughout.
